Assay results taken from US12178848B2, “Methods and compositions for the treatment of exocrine pancreatic insufficiency” (Board of Regents, The University of Texas System, priority 2016, dated 2024).

B1: fibroblast growth factor 21 (protein, UniProt Q9NSA1 29-209, looked up)
Fibroblast growth factor 21: HPIPDSSPLLQFGGQVRQRYLYTDDAQQTEAHLEIREDGTVGGAADQSPESLLQLKALKPGVIQILGVKTSRFLCQRPDGALYGSLHFDPEACSFRELLLEDGYNVYQSEAHGLPLHLPGNKSPHRDPAPRGPARFLPLPGLPPALPEPPGILAPQPPDVGSSDPLSMVGPSQGRSPSYAS
notes: human recombinant FGF21 from Novo Nordisk, the native form of the human FGF21

Columns and labels:
AR42J cells = test: Calcium imaging with fluo4-AM; assay type: cell-based; conditions: for block of CCK-mediated calcium release: inhibitor 30 min prior and during imaging: 1 μM PD173074, 10 μM L-364,718, 10 μM U73122, 100 μM 2-APB; for block of calcium release elicited by FGF21: 1 μg/ml FGF21, inhibitor 30 min prior and during imaging: 1 μM PD173074, 10 μM L-364,718, 10 μM U73122, 100 μM 2-APB; for intracellular calcium release (ΔF/F0): 1 μg/ml FGF21 or 100 pM CCK
Experimental: AR42J cells were pre-loaded with 1 μM of the calcium indicator fluo4-AM (Life Technologies) for 30 minutes at 37° C. Where indicated, 1 μM PD173074 (Sigma), 10 μM L-364,718 (Tocris Bioscience), 10 μM U73122 (Tocris Bioscience) or 100 μM 2-APB (Tocris Bioscience) were added during fluo4-AM preloading and to the imaging medium (DMEM without phenol red). Cells were imaged on a BD Pathway 855 bioimager with a 10× objective. Vehicle, FGF21 (1 μg/ml) and CCK (100 pM) were delivered 10 seconds after baseline fluorescence acquisition by an automated fluid delivery mechanism and imaged for a total time of 2 minutes. Calcium release was calculated using Image J as ΔF/F0, where ΔF is the raw fluorescent signal (F) from cells minus their background fluorescence (calculated from a region where no cells and fluorescent signal was expected), and F0 was the average of the first 6 frames before the compound was added. Sample size (n) corresponds to the number of cell clusters measured with each cell cluster containing 5-20 cells.

ad-lib fed WT mice = test: FGF21 protein levels in pancreatic juice and plasma after CCK treatment; assay type: in vivo, mouse; conditions: 15 min CCK treatment vs basal
Excerpt: (§1) Fgf21-knockout (KO) mice (Potthoff, et al., Proc Natl Acad Sci USA 106, 10853-10858, 2009), Fgf21-transgenic (Tg) mice (Inagaki, et al., Cell Metab 5, 415-425, 2007), KLB-T and WT littermates were maintained on a C57Bl/6J background. β-Klotho-KO and heterozygous littermates were kept on a mixed C57BL/6J; 129/Sv background (Ding, et al., Cell Metab 16, 387-393, 2012). All mice were housed in a pathogen-free facility and fed a standard chow diet (Harlan Teklad 2916). For fasting refeeding experiments, mice were fasted overnight and then refed for 2 hours with standard chow diet. Acute pancreatitis was induced by administration of seven hourly intraperitoneal injections of 50 μg/kg cerulein (Sigma), whereas mice in the control group were injected with saline. FGF21 in plasma was measured using a mouse FGF21 ELISA kit (Biovendor). Male mice were used for all experiments.
(§2) Mice were injected with vehicle (10 mM Na2HPO4, 2% [w/v] glycerol, pH 7.6) or 1 mg/kg human recombinant FGF21 (Novo Nordisk) subcutaneously twice per day for two consecutive days. Mice were fasted for 6 hours, and pancreatic juice was collected for 15 minutes. The final injection of vehicle or FGF21 was given 1 hour prior to pancreatic juice collection.

[1] = test system: pancreatic protein synthesis; test: Pancreatic protein synthesis, 3H-phenylalanine flooding dose method; assay type: in vivo, mouse; conditions: mice, 1 mg/kg FGF21 or 5 mg/kg CCK for 2 hr
Experimental: Pancreatic protein synthesis was measured by the flooding dose method using ^3H-phenylalanine (Sans, et al., American journal of physiology 287, G667-675, 2004).

eIF4E-BP1 = test: Western blot of pancreatic phospho-eIF4E-BP1; assay type: in vivo, mouse; conditions: mice, 1 mg/kg FGF21 or CCK for 15 min
Experimental: (§3) Pancreas was homogenized using Fastprep-24 lysing matrix bead tubes (MP Biomedicals) in 1×RIPA buffer (Cell Signaling Technology) supplemented with a cocktail of protease and phosphatase inhibitors (Roche). Protein lysate concentrations were measured using the DC Protein Assay (Biorad). Equal protein amounts were loaded and electrophoresed in a […] SDS-polyacrylamide gel (Biorad) and transferred to nitrocellulose membranes (Biorad). Membranes were blocked with 5% BSA in TBST for 1 hour. Probing of membranes with antibodies against FGF21, amylase and lipase (Santa Cruz); β-actin (Abcam); p-EIF2α, p-ERK1/2, and p-eIF4E-BP1 (Cell Signaling Technology) was performed overnight at 4° C. Membranes were then incubated with HRP-conjugated secondary antibodies (Cell Signaling Technology) against the primary antibody's host species for 1 hour. Membranes were developed using the Super Signal West Chemiluminescence Kit (Thermo) and signal was detected with an ImageQuant LAS4000 luminescent imager (General Electric). Quantification was done using Image J.

ERK1/2 = test: Western blot of pancreatic phospho-ERK1/2; assay type: in vivo, mouse; conditions: for ERK1/2 phosphorylation in pancreas (FIG. 4F): WT mice, 1 mg/kg FGF21 or 5 μg/kg CCK (i.p.) for 15 min; for ERK1/2 phosphorylation in pancreas (FIG. 3B): mice, 1 mg/kg FGF21 or 5 mg/kg CCK for 15 min
Experimental: as §3

PLCβ3 = test: Western blot of pancreatic phospho-PLCβ; assay type: in vivo, mouse; conditions: WT mice, 5 μg/kg CCK (i.p.) for 15 min
Experimental: as §3
(§4) Activation of the CCK-A receptor leads to the phosphorylation of the b isoform of PLC, calcium release, and subsequent secretion. In contrast, FGF receptors activate the γ isoform. To explore whether FGF21 and CCK have different activation profiles for the PLC isoforms, we treated WT mice with vehicle, FGF21, or CCK for 15 min. […]

Fgf21-KO mice [2] = test: H&E staining of pancreas, eosinophilic area fraction; assay type: in vivo, mouse; conditions: 1 mg/kg recombinant FGF21 twice per day for two consecutive days
Experimental: as §2
Mouse pancreas was fixed in 10% neutral buffered formalin overnight and then paraffin embedded, sectioned and hematoxylin and eosin stained. For fresh frozen histology, the pancreas was quickly dissected, snap frozen in cooled isopentane and sectioned at 14-16 μm. The sections were then fixed in 10% neutral buffered formalin for 15 min at 4° C., washed 3 times in 1×PBS and mounted with Vectashield mounting medium with DAPI (Vector Laboratories). Images were acquired with a Zeiss Axioscan Z1 slide scanner at a 20× magnification. Quantification of the eosinophilic area was performed using Image J.

Fgf21-KO mice [3] = test: Western blot of pancreatic amylase and lipase levels; assay type: in vivo, mouse; conditions: 1 mg/kg recombinant FGF21 twice per day for two consecutive days
Experimental: as §2
as §3, with “Membranes were then incubated with HRP-conjugated secondary antibodies (Cell Signaling Technology) against the primary antibody's host species for 1 hour.” left out

PLCγ1 = test: Western blot of pancreatic phospho-PLCγ; assay type: in vivo, mouse; conditions: WT mice, 1 mg/kg FGF21 for 15 min
Experimental: as §3, §4

[4] = test system: Klb^fl/fl and Klb^Cela1−/− mice; test: Pancreatic juice collection: flow rate and amylase levels; assay type: in vivo, mouse; conditions: 1 mg/kg FGF21 for 2 consecutive days
Experimental: as §2
To explore whether FGF21 also acts directly on pancreatic acinar cells in vivo, we generated an inducible acinar cell-specific β-Klotho (Klb) knockdown mouse model in which Cre recombinase expression was under the control of a modified estrogen receptor and the elastase promoter. Efficient knockdown of Klb expression following tamoxifen administration was confirmed in floxed Klb mice carrying the Cre allele (Klb^Cela1−/−). There was no change in plasma FGF21 concentrations in Klb^Cela1−/− mice under fasted conditions. Similar to the Fgf21 KO mice, the Klb^Cela1−/− mice had increased zymogen granule density and pancreatic digestive enzyme concentrations. To test whether FGF21 acts directly on pancreatic acinar cells to stimulate secretion, Klb^fl/fl and Klb^Cela1−/− mice were treated with either vehicle or FGF21 and pancreatic juice collected for 15 min. […] Thus, the basis for the remaining effect of FGF21 on pancreatic juice flow rate requires further investigation.

secretin = test: Blood concentration of secretin; assay type: in vivo, mouse; conditions: mice treated with FGF21
[5] = test system: mouse primary acinar cells; test: Cell secretion assay, amylase secretion; assay type: cell-based; conditions: 1 μg/mL FGF21 for 30 min
Experimental: Primary acinar cells were prepared by modification of a published protocol (Williams, et al., The American journal of physiology 235, 517-524, 1978). Briefly, mice were sacrificed by decapitation followed by dissection and washing of the pancreas in 1×PBS. Pancreas digestion medium (0.75 mg/ml collagenase type XI-S [Sigma], 0.1 mg/ml soybean trypsin inhibitor [Sigma], 1% BSA in DMEM) was injected into the pancreatic parenchyma with a 30 g syringe. Pancreas was then incubated in digestion medium for 20-40 minutes with constant mixing using serological pipets of decreasing diameters. Cells were filtered through a 100 μm strainer and washed 3 times with incubation medium (0.1 mg/ml soybean trypsin inhibitor, 1% BSA in DMEM) via centrifugation at 50×g for 3 minutes per wash. Cells were plated and allowed to recover for 2 hours in incubation medium at 37° C.
Primary acinar and AR42J cells were treated with vehicle, FGF21 (1 μg/ml for both primary acinar cells and AR42J) or CCK (10 pM for primary acinar cells and 100 pM for AR42J cells [Phoenix Pharmaceuticals]) for 30 minutes at 37° C. Amylase levels in both the cell medium and cells were analyzed using an Amylase Assay Kit (Abcam).

[6] = test system: Fgf21-transgenic (Tg) mice; test: Cerulein-induced pancreatitis (CIP), ER stress markers; assay type: in vivo, mouse; conditions: chronic FGF21 via liver-specific transgene, supraphysiologic circulating levels; cerulein 50 μg/kg, seven hourly i.p. injections
Excerpt: as §1, with “experiments. […]” for “experiments.”
Pancreas was homogenized using Fastprep-24 lysing matrix bead tubes (MP Biomedicals) in 1×RIPA buffer (Cell Signaling Technology) supplemented with a cocktail of protease and phosphatase inhibitors (Roche). Protein lysate concentrations were measured using the DC Protein Assay (Biorad). […] Membranes were developed using the Super Signal West Chemiluminescence Kit (Thermo) and signal was detected with an ImageQuant LAS4000 luminescent imager (General Electric). Quantification was done using Image J.

[7] = test system: Female Swiss Webster mice; test: ERCP-induced pancreatitis model, histological grading of pancreas; assay type: in vivo, mouse; conditions: 1 mg/kg FGF21, 4 subcutaneous injections
Experimental: To evaluate if FGF21 confers a beneficial effect against ERCP-induced pancreatitis, a preclinical study was performed in an established rodent model of ERCP that develops pancreatitis 24 hours after ERCP. Female Swiss Webster mice were treated with either 4 subcutaneous injections of vehicle or 1 mg/kg FGF21 in the following way: 1 injection the day prior to ERCP, 2 injections the day of the ERCP procedure, and 1 injection the day following ERCP. Mice were subjected to the ERCP procedure, which consisted of a high-pressure infusion of a radiocontrast agent through the pancreatic duct.

[8] = Klb^Cela1−/− mice, juice collected for 15 min

Row | Molecule | block of CCK-mediated calcium release (AR42J cells; 100 pM CCK) | block of calcium release elicited by FGF21 (AR42J cells) | 3H-phenylalanine incorporation into pancreatic protein (pancreatic protein synthesis) [1] | phosphorylation of eIF4E-BP1 in pancreas (eIF4E-BP1) | ERK1/2 phosphorylation in pancreas (FIG. 4F) (ERK1/2) | ERK1/2 phosphorylation in pancreas (FIG. 3B) (ERK1/2) | intracellular calcium release (ΔF/F0) (AR42J cells) | also measured
1 | NCCOB(c1ccccc1)c1ccccc1 [2-APB] | blocked | blocked |  |  |  |  |  | 
2 | CN1C(=O)[C@@H](NC(=O)c2cc3ccccc3[nH]2)N=C(c2ccccc2)c2ccccc21 [L-364,718] | blocked | not |  |  |  |  |  | 
3 | CCN(CC)CCCCNc1ncc2cc(-c3cc(OC)cc(OC)c3)c(NC(=O)NC(C)(C)C)nc2n1 [PD173074] | not | blocked |  |  |  |  |  | 
4 | COc1ccc2c(c1)CC[C@@H]1[C@@H]2CC[C@]2(C)[C@@H](NCCCCCCN3C(=O)C=CC3=O)CC[C@@H]12 [U73122] | blocked | blocked |  |  |  |  |  | 
5 | cholecystokinin [CCK] |  |  | significantly increased | increased | induced | induced | triggered intracellular calcium release | change of FGF21 in the blood (ad-lib fed WT mice): without any change; increase in the concentration of FGF21 in the pancreatic juice (ad-lib fed WT mice): 3 fold; phosphorylation of PLCβ in pancreas (PLCβ3): induced; time to peak calcium levels after treatment (AR42J cells; 100 pM CCK): ≤ 30 s
6 | B1 |  |  | no significant effect | no effect | induced | induced | triggered intracellular calcium release | pancreatic eosinophilic area fraction (Fgf21-KO mice [2]): decreased the pancreatic eosinophilic area fraction in Fgf21-KO mice to wild type (WT) levels; pancreatic digestive enzyme levels (amylase, lipase), immunoblot (Fgf21-KO mice [3]): reduction; phosphorylation of PLCγ in pancreas (PLCγ1): induced; effect on digestive enzyme secretion (amylase in pancreatic juice) in Klb^Cela1−/− mice [4, 8]: absent; effect on pancreatic juice flow rate in Klb^Cela1−/− mice [4, 8]: significantly reduced but not eliminated; digestive enzyme secretion into pancreatic juice ([4]; control mice): stimulate; pancreatic juice flow ([4]; control mice): stimulate; blood concentrations of secretin (secretin): did not increase; amylase (digestive enzyme) secretion from acinar cells [5]: Induce Pancreatic Digestive Enzyme Secretion; time to peak calcium levels after treatment (AR42J cells; 1 μg/ml FGF21): 60 to 120 s; ER stress parameters (p-eIF2α, Atf4, Chop, Bip mRNA) in response to CIP [6]: suppressed; edema after ERCP, histological grading [7]: decreased; inflammation after ERCP, histological grading [7]: decreased
